Measured values from the supplement of paper PMC10126150.
± gives the standard deviation of the averaged measurements.

tested on: ATP; experiment: switch fluorescence ratio, 500 uM ATP over buffer (Cy3 cluster intensity, sum of 5 cycles each) (fold (ratio)); higher = stronger signal-on switching upon ATP binding; sequences stand for … in TCGTCGGCAGCGTCAGATGTGTATAAGAGACAGTTTTTTTTTTTTTTTTTTTTTTTTT…TC; conditions: aptamer strand: ATP DNA aptamer (quencher-CACCTGGGGGAGTATTGCGGAGGAAGG + anchor), 100 nM annealed; ATP concentration: 500 uM
Summary of the method: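 Five buffer/ATP imaging cycles were run on Cy3-labelled switching-strand clusters on a modified Illumina MiSeq flow-cell, with NaOH stripping and re-annealing between cycles. In each cycle, clusters annealed to 100 nM quencher-labelled ATP aptamer were imaged in selection buffer, then after 15 min with 500 uM ATP at 22 °C. Per cluster, the fluorescence ratio is summed target-cycle over summed buffer-cycle Cy3 intensity, averaged per switch-domain sequence. Only clusters within 100-1000 RFU were kept.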
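Note: ATP exposure 15 min at 22 °C before imaging.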

In order of falling switch fluorescence ratio:
1. GCAGTGGTAC  2.41 ± 0.086
2. TTGCAGTAAT  1.87 ± 1.1
3. CGTCCGGCGC  1.346 ± 0.0029
4. TCTTACGAAG  1.27 ± 0.27
5. TGCTGTTTAC  1.2 ± 0.28
6. CTGTACGACA  1.18 ± 0.02
7. GGGGCTATCG  1.16 ± 0.24
8. GACAGACGGG  1.13 ± 0.049
9. CCCAAACCTG  1.13 ± 0.068
10. CGTTTGGCGT  1.12 ± 0.2
11. GCTCCTGTTA  1.11 ± 0.027
12. AGGTAATACG  1.098 ± 0.0067
13. TTTCTAGACC  1.1 ± 0.12
14. ATCACGGTGC  1.1 ± 0.061
15. CATATCATAC  1.079 ± 0.0078
16. CGGGGTGTTA  1.07 ± 0.057
17. ACCATTTGTC  1.06 ± 0.094
18. GCGAGTAGG  1.06 ± 0.056
19. ACCCTGCAGA  1.06 ± 0.0064
20. TCTACTAT  1.06 ± 0.031
21. ATATACTATG  1.05 ± 0.026
22. GTAAAAATGG  1.05 ± 0.12
23. ACCTAGGGAG  1.05 ± 0.02
24. TAATATTTAA  1.05 ± 0.009
25. TATGGGGGCT  1.04 ± 0.012
26. TAATTGAGGC  1.04 ± 0.017
27. GGGTAAGAGA  1.04 ± 0.079
28. GTGATAATGG  1.037 ± 0.0077
29. TCAACCAATG  1.04 ± 0.0039
30. CGTCCTGAGG  1.04 ± 0.019
31. ATTCAGGCTT  1.029 ± 0.0019
32. AATGGCGGCC  1.03 ± 0.039
33. AGATGATAGG  1.0282 ± 0.00044
34. TACTGGTATG  1.03 ± 0.037
35. GGGGCTGGCG  1.03 ± 0.11
36. CTGCGGGGGT  1.03 ± 0.038
37. TGGTTTTCTG  1.03 ± 0.051
38. TAAGGTTTTT  1.03 ± 0.063
39. TATATTTCGT  1.03 ± 0.07
40. GGACAGGGGT  1.03 ± 0.073
41. TCTTGTCGTT  1.019 ± 0.0077
42. GACCGGGTAA  1.02 ± 0.033
43. TCGTAGGTGG  1.02 ± 0.063
44. TGATATATTT  1.02 ± 0.046
45. AAAAGGTAAA  1.02 ± 0.021
46. GGGGGGTGCA  1.02 ± 0.018
47. CGGAAGCGGG  1.02 ± 0.038
48. TCTGAACGGG  1.02 ± 0.011
49. GTGATGTTGG  1.02 ± 0.029
50. ATTGGGAGAT  1.024 ± 0.0064
51. TGGGAGTAAA  1.02 ± 0.027
52. CGTTGAGGTG  1.02 ± 0.02
53. GGGATACTTA  1.02 ± 0.04
54. AATTTTCCAC  1.02 ± 0.043
55. CACCTGTTTT  1.02 ± 0.033
56. TTTAATTTA  1.01 ± 0.012
57. GCAAATGATG  1.01 ± 0.012
58. CTTGACGGTT  1.01 ± 0.092
59. TGTAAAAAT  1.01 ± 0.042
60. TTATTACGTG  1.01 ± 0.023
61. TATCATTTAA  1.005 ± 0.009
62. AGACCATCGT  1.01 ± 0.032
63. AAGGTGTGGG  1.01 ± 0.015
64. TAAGGGGGCT  1.01 ± 0.034
65. TGGAAACCGG  1.009 ± 0.0055
66. GGGGATCGCC  1.01 ± 0.03
67. ATTTTAGAAA  1.01 ± 0.015
68. GCGTTAGGCG  1.01 ± 0.044
69. TATCGTGGGA  1.01 ± 0.019
70. TATCGGTCTA  1.006 ± 0.005
71. GGGTAACGAG  1.006 ± 0.0078
72. AATCGTATCC  1.01 ± 0.029
73. GGCTCGGGAC  1.01 ± 0.039
74. TTTGTCCCTT  1.01 ± 0.041
75. TTTGTATTGC  1.01 ± 0.025
76. TTGAAGGAGA  1.01 ± 0.021
77. AGCGGGGGAG  1.01 ± 0.012
78. GGACATGGGT  1 ± 0.019
79. GGGGGCAGCT  1 ± 0.027
80. CGCGTGATGG  1 ± 0.021
81. GGGGTGATAG  1 ± 0.042
82. TTGGAAGGGA  1 ± 0.015
83. GATTTTTCAA  1 ± 0.021
84. AGTTTTAGAT  1 ± 0.044
85. GTGCTTTTGG  0.9997 ± 0.008
86. TGAGGCCGGG  1 ± 0.021
87. TCGGTGTTCA  1 ± 0.011
88. AGCTTCGTTT  1 ± 0.031
89. ATTCAAATGT  1 ± 0.03
90. CAGAGAATTT  1.004 ± 0.0046
91. ATAAAAAATA  1 ± 0.025
92. GGGGTGGGGC  1 ± 0.042
93. TTTTTGCTGC  0.999 ± 0.024
94. TCCTGTATGT  0.9981 ± 0.0018
95. AGGCCGTTCG  0.9976 ± 0.0073
96. TGGGGGGTGA  0.997 ± 0.049
97. CAGGACCCGT  0.9965 ± 0.0019
98. GGTCATGTTG  0.997 ± 0.051
99. GTTTATTTTT  0.997 ± 0.023
100. TAGAAAAGCA  0.997 ± 0.024
101. CAGACGGATT  0.996 ± 0.0085
102. CGGTTGGCGG  0.996 ± 0.038
103. GCATCAAAGG  0.995 ± 0.013
104. CAAGCTTAGG  0.995 ± 0.014
105. CTGAGGATCG  0.994 ± 0.034
106. GTCCGTGTTA  0.994 ± 0.037
107. CATCGTGACT  0.994 ± 0.028
108. AGTAGGGGAC  0.994 ± 0.022
109. AGAATGGAGG  0.994 ± 0.025
110. TTTTTCTTTT  0.993 ± 0.029
111. AAAAGGTGCG  0.993 ± 0.013
112. GCGGTTGGAA  0.9927 ± 0.0034
113. TATAAGCGGA  0.993 ± 0.028
114. GTTTGTAGAG  0.993 ± 0.026
115. CCTGGTTGTG  0.992 ± 0.029
116. TTAAACTTAG  0.992 ± 0.03
117. AGTTAGTGGA  0.9924 ± 0.00044
118. TTTTGTTTCT  0.992 ± 0.027
119. GCATTGTGTG  0.991 ± 0.037
120. ATTTGTTGGT  0.991 ± 0.013
121. AATGAGTATA  0.9915 ± 0.007
122. ATTGGGGCGC  0.991 ± 0.041
123. AAGGTTTGTA  0.9899 ± 0.0068
124. GTGTTAAGGT  0.99 ± 0.019
125. AGTGTGGTGG  0.98944 ± 7.4e-05
126. GCTGGTCATG  0.989 ± 0.018
127. TATTGGGCTT  0.989 ± 0.018
128. CTGTAATTGT  0.98817 ± 0.00075
129. GTGTGGGGAC  0.988 ± 0.044
130. ATAACGTCGG  0.9867 ± 0.0082
131. TGTGTCATGG  0.986 ± 0.011
132. CCTGGTCGAC  0.986 ± 0.015
133. GGGGTAGCAT  0.986 ± 0.028
134. TTGTATGAGT  0.986 ± 0.025
135. TTTGGCTGGG  0.985 ± 0.02
136. ATAAAAAACT  0.984 ± 0.01
137. ATTAAGTTGG  0.982 ± 0.022
138. ACGGGGGTT  0.98 ± 0.017
139. AATTTTAGGA  0.98 ± 0.028
140. AGAGGGCGGG  0.98 ± 0.031
141. TTCAAGTGAA  0.979 ± 0.012
142. ATGGGGACTT  0.979 ± 0.035
143. CAATGGGTAT  0.978 ± 0.014
144. GGATTGGAGT  0.977 ± 0.02
145. ACGATTTTTC  0.974 ± 0.056
146. CAAGACGTTG  0.974 ± 0.012
147. ATAGCTAGTG  0.973 ± 0.013
148. GTTTTTTAGA  0.9728 ± 0.0018
149. GGAGGTAAGG  0.973 ± 0.025
150. GAAGGGCTGG  0.972 ± 0.022
151. GGTCCTAGAA  0.9724 ± 0.0011
152. AGTGGAAGCA  0.972 ± 0.031
153. GGGTGGATAG  0.971 ± 0.018
154. CTTAATCTC  0.968 ± 0.02
155. TGGTTTAGCG  0.964 ± 0.03
156. GTGAGAGCGG  0.963 ± 0.033
157. TAAACGAAGT  0.956 ± 0.054
